According to the supplement of paper PMC9732359:
± gives the uncertainty stated by the source.

Assay: protein stability index of a GFP-peptide fusion (yeast GPS) (PSI 1-4); higher = more stable; sorted into four equal gates, so the index is relative within each strain
How it was run: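 Peptides tiling yeast proteins in 17-residue segments were fused downstream of GFP, with Cherry expressed from the same plasmid. As a pooled library in yeast, mid-log cultures grown in leucine-free medium were sorted into four equal gates by GFP/Cherry fluorescence ratio. Gate plasmids were PCR-amplified and Illumina-sequenced, and barcodes linked reads to strains. Each peptide received a protein stability index equal to the sum of each gate's read frequency times its gate number.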

| Sequence | protein stability index (doa10∆) | protein stability index (pdr5∆) | protein stability index (san1∆) | protein stability index (ubr1∆) |
| --- | --- | --- | --- | --- |
| SFPILDQCVGQVGLNFE [YMR129W/POM152] | 3.07 ± 0.083 | 2.96 ± 0.11 | 3.1 ± 0.056 | 3.02 ± 0.07 |
| SFRIKQKMAKAKKQNRP [RPL39] | 2.47 ± 0.17 | 2.78 ± 0.097 | 2.93 ± 0.091 | 2.93 ± 0.092 |
| SFSLTTFSPSGKLGQID [PRE8] | 3 ± 0.14 | 2.67 ± 0.1 | 3.01 ± 0.074 | 3.08 ± 0.073 |
| SFSLTVSKEQFLKDADV [YJL039C/NUP192] | 1.47 ± 0.041 | 1.45 ± 0.056 | 1.54 ± 0.11 | 1.64 ± 0.045 |
| SFTLLNQLSQTNKLLFK [NUT1] | 2.81 ± 0.09 | 2.35 ± 0.055 | 2.71 ± 0.077 | 2.33 ± 0.057 |
| SFTYELKQHNQNNLPPN [BRR2] | 2.95 ± 0.094 | 3.21 ± 0.087 | 2.78 ± 0.1 | 2.9 ± 0.12 |
| SFVFGQAAAKPSLEKSS [YLR335W/NUP2] | 1.79 ± 0.1 | 2.5 ± 0.1 | 2.21 ± 0.14 | 2.67 ± 0.09 |
| SGEDTNVGLPILKSLKN [YOR098C/NUP1] | 2.95 ± 0.1 | 3.16 ± 0.13 | 2.85 ± 0.069 | 3.28 ± 0.12 |
| SGGGDSEVQRTMLELLN [RPT6] | 3.22 ± 0.18 | 2.42 ± 0.19 | – | 3.42 ± 0.066 |
| SGGNNTATIINNESSDD [PCI8] | 2.63 ± 0.091 | 2.65 ± 0.087 | 2.69 ± 0.092 | 3.17 ± 0.055 |
| SGHDDLVHDVVYDFYGR [YGL100W/SEH1] | 2.49 ± 0.068 | 2.75 ± 0.067 | 2.39 ± 0.089 | 2.5 ± 0.065 |
| SGKARICIVGGYDDFQE [FAS2] | 2.91 ± 0.15 | 2.24 ± 0.1 | 3.36 ± 0.11 | 1.56 ± 0.17 |
| SGMGPDYRVLVDKSRKV [PRE8] | 3 ± 0.14 | 2.21 ± 0.19 | – | 2.98 ± 0.24 |
| SGQTPVQSKARYTVRTF [RPL11A] | 2.29 ± 0.094 | 2.06 ± 0.081 | 1.72 ± 0.13 | 1.71 ± 0.089 |
| SHDKKTKCSTVVKASEL [SRP14] | 3.02 ± 0.18 | 3.46 ± 0.22 | 3.05 ± 0.17 | 3.33 ± 0.11 |
| SHSLALNEITNSKVNKL [DSN1] | 2.33 ± 0.04 | 2.57 ± 0.04 | 2.48 ± 0.035 | 2.54 ± 0.033 |
| SHTDQPANVLLVQSLND [NNF1] | 2.07 ± 0.071 | 2.16 ± 0.083 | 2.23 ± 0.18 | 2.7 ± 0.09 |
| SIFAMGLCGAGTNNARL [RPN1] | 2.44 ± 0.058 | 1.27 ± 0.043 | 1.24 ± 0.094 | 1.12 ± 0.039 |
| SIFEDAIKELNYNRIAK [NUT1] | 2.79 ± 0.13 | 3.12 ± 0.19 | 3.07 ± 0.075 | 2.92 ± 0.12 |
| SIGSDILTAEKMRGNGN [RRP4] | 3.21 ± 0.097 | 3.39 ± 0.09 | 3.38 ± 0.05 | 3.32 ± 0.062 |
| SIIGNKNNNYTWEECVF [REC8] | 2.78 ± 0.15 | 2.62 ± 0.23 | 2.73 ± 0.085 | 2.43 ± 0.11 |
| SILDDIKLSLKDKTKNI [SMC4] | 2.88 ± 0.06 | 2.94 ± 0.059 | 2.8 ± 0.06 | 3 ± 0.062 |
| SILEEKIAVLNNDKREI [SMC1] | 3.21 ± 0.071 | 3.38 ± 0.057 | 3.25 ± 0.051 | 3.33 ± 0.061 |
| SILGKFCPIVEEIVSNS [YCS4] | 1.95 ± 0.091 | 1.51 ± 0.12 | 1.6 ± 0.14 | 1.55 ± 0.066 |
| SIMPDLYFYRNPEEVEQ [RPS0B] | 2.86 ± 0.082 | 2.95 ± 0.077 | 2.94 ± 0.063 | 2.85 ± 0.06 |

| Sequence | protein stability index (doa10∆) | protein stability index (pdr5∆) | protein stability index (san1∆) | protein stability index (ubr1∆) |
| --- | --- | --- | --- | --- |
| SIMVELKLPLEINYAFS [SIR3] | 1.31 ± 0.077 | 1.64 ± 0.064 | 1.55 ± 0.12 | 1.5 ± 0.058 |
| SINGGIVVAMTGKDCVA [PUP3] | – | 2.39 ± 0.21 | – | – |
| SIPNLFPTDLEIFQLFT [SWI1] | 2.6 ± 0.14 | 2.22 ± 0.12 | 2.27 ± 0.12 | 3.09 ± 0.19 |
| SIVEECDARFDEKTIEE [RPC17] | 2.98 ± 0.14 | 3.05 ± 0.088 | 3.09 ± 0.11 | 2.68 ± 0.21 |
| SIVHINSQERVQDLGSA [SIR2] | 2.65 ± 0.069 | 3.14 ± 0.064 | 2.99 ± 0.067 | 2.59 ± 0.048 |
| SKALLREISNFSKGDAD [SRP72] | 3.06 ± 0.26 | 3.41 ± 0.21 | – | 3.77 ± 0.2 |
| SKAQQKTAEQVAAERAA [RPL7A] | 2.84 ± 0.064 | 2.88 ± 0.052 | 2.74 ± 0.054 | 2.68 ± 0.049 |
| SKASMQKEQNVNNRDSE [YCS4] | 2.78 ± 0.069 | 2.98 ± 0.067 | 2.05 ± 0.076 | 2.77 ± 0.042 |
| SKDGLPNKVKTEDIRIR [RRP6] | 2.67 ± 0.063 | 2.91 ± 0.076 | 2.76 ± 0.067 | 2.73 ± 0.046 |
| SKDVQQIDYKLESFQAV [RPS7A] | 2.89 ± 0.053 | 3.06 ± 0.059 | 3.08 ± 0.054 | 3.07 ± 0.038 |
| SKEDYETLKRDRKQSQA [ARP7] | 2.79 ± 0.071 | 2.9 ± 0.098 | 2.57 ± 0.093 | 2.6 ± 0.065 |
| SKEETVDFIKHSLSQAI [PRE3] | 2.56 ± 0.065 | 2.65 ± 0.063 | 2.66 ± 0.056 | 2.7 ± 0.053 |
| SKEFSAYVSGLFEIYRD [YJR042W/NUP85] | 1.76 ± 0.093 | 2.75 ± 0.15 | 2.7 ± 0.19 | 2.31 ± 0.08 |
| SKELRAQYGIKALPIRR [RPL26A] | 3.44 ± 0.19 | 3.41 ± 0.17 | 3.49 ± 0.14 | – |
| SKKETKLQENRTLLTEE [SMC2] | – | 3.23 ± 0.24 | – | 3.08 ± 0.14 |
| SKKGSLENNIREFPEYF [RPL10] | 2.95 ± 0.12 | 3.23 ± 0.084 | 3.29 ± 0.057 | 3.36 ± 0.069 |
| SKKISNTAAALVSLLDE [YAR002W/NUP60] | 2.9 ± 0.095 | 2.67 ± 0.086 | 2.92 ± 0.052 | 2.78 ± 0.07 |
| SKKIVPSPKKVAIDQDK [SIR4] | 2.73 ± 0.078 | 2.91 ± 0.066 | 2.59 ± 0.06 | 2.92 ± 0.057 |
| SKKRQAEKLVPLPICHA [YML031W/NDC1] | 2.33 ± 0.12 | 2.5 ± 0.049 | 2.39 ± 0.087 | 2.39 ± 0.093 |
| SKLLVPQKNVKIQVVDR [PRE10] | 3.02 ± 0.074 | 2.84 ± 0.049 | 2.53 ± 0.099 | 2.72 ± 0.052 |
| SKMSDESFAELMTKLNS [RPC17] | 3.29 ± 0.12 | 3.67 ± 0.12 | 3.09 ± 0.098 | 3.37 ± 0.12 |
| SKQVTDYYQSIYAKYGA [FAS2] | 2.73 ± 0.051 | 2.67 ± 0.052 | 2.54 ± 0.057 | 2.77 ± 0.041 |
| SKRSKIDIINKLILHAI [YML103C/NUP188] | 1.23 ± 0.13 | 1.23 ± 0.11 | 1.04 ± 0.13 | 1.1 ± 0.079 |
| SKSPSEWQDIIHQREQE [CSE2] | 3.33 ± 0.16 | 3.31 ± 0.12 | 3.25 ± 0.085 | 3.2 ± 0.14 |
| SKTWETYEMRIHKRYID [RPS20] | 2.45 ± 0.13 | 3 ± 0.091 | 1.84 ± 0.18 | 3.21 ± 0.072 |
